Source: the supplement of paper PMC11246515
± gives the standard deviation of the averaged measurements.

Assay: total protein half-life in vivo (active degradation + dilution); higher = more stable protein
[1] = E. coli NCM3722 delta-clpP delta-lon delta-hslV, growth: N-lim chemostat, doubling time 6 h
[2] = E. coli NCM3722 delta-hslV, growth: N-lim chemostat, doubling time 6 h
[3] = E. coli NCM3722 delta-lon, growth: N-lim chemostat, doubling time 6 h
[4] = E. coli NCM3722 delta-smpB, growth: N-lim chemostat, doubling time 6 h
[5] = wild type E. coli NCM3722, growth: C-lim chemostat, doubling time 3 h
[6] = wild type E. coli NCM3722, growth: C-lim chemostat, doubling time 6 h
[7] = wild type E. coli NCM3722, growth: C-lim chemostat, doubling time 12 h
[8] = wild type E. coli NCM3722, growth: N-lim chemostat, doubling time 6 h
[9] = wild type E. coli NCM3722, growth: N-lim chemostat, doubling time 12 h
[10] = wild type E. coli NCM3722, growth: P-lim chemostat, doubling time 6 h
[11] = wild type E. coli NCM3722, growth: P-lim chemostat, doubling time 12 h
[12] = E. coli NCM3722 delta-clpP, growth: N-lim chemostat, doubling time 6 h

| Sequence | total protein half-life in vivo [1] [h] | total protein half-life in vivo [2] [h] | total protein half-life in vivo [3] [h] | total protein half-life in vivo [4] [h] | total protein half-life in vivo [5] [h] | total protein half-life in vivo [6] [h] | total protein half-life in vivo [7] [h] | total protein half-life in vivo [8] [h] | total protein half-life in vivo [9] [h] | total protein half-life in vivo [10] [h] | total protein half-life in vivo [11] [h] | total protein half-life in vivo [12] [h] |
| --- | --- | --- | --- | --- | --- | --- | --- | --- | --- | --- | --- | --- |
| MARKTKPLTDTEIKAAKPKDADYQLYDGDGLTLLIKSSGSKLWQFRYYRPLTKQRTKQSFGAYPAVSLSDARKLRAESKVLLAKDIDPQEHQKEQVRNSQEAKTNTFLLVAERWWNVKKTSVTEDYADDIWRSLERDIFPAIGDISITEIKAHTLVKAVQPVQARGALETVRRLCQRINEVMIYAQNTGLIDAVPSVNIGKAFEKPQKKNMPSIRPDQLPQLMHTMRTASISMSTRCLFMWQLLTITRPAEAAEARWDEIDFNASEWKIPAARMKMNRDHTVPLSDGALAILEMMKPLSGGREFIFPSRIKPNQPMNSQTVNAALKRAGLGGVLVSHGLRSIASTALNEEGFPPDVIEAALAHVDKNEVRRAYNRSDYLEQRRPMMQWWADLVKAADSGSIVLTHLSKIRLVG | 5.38 ± 0.81 | 0.734 ± 0.064 | 1.362 ± 0.0065 | 0.777 ± 0.0083 | 1.16 ± 0.22 | 1.13 ± 0.079 | 0.594 | 1.7 ± 0.26 | 0.847 | 0.572 | 1.64 ± 0.32 |  |
| MARKTKQEAQETRQHILDVALRLFSQQGVSSTSLGEIAKAAGVTRGAIYWHFKDKSDLFSEIWELSESNIGELELEYQAKFPGDPLSVLREILIHVLESTVTEERRRLLMEIIFHKCEFVGEMAVVQQAQRNLCLESYDRIEQTLKHCIEAKMLPADLMTRRAAIIMRGYISGLMENWLFAPQSFDLKKEARDYVAILLEMYLLCPTLRNPATNE [P0ACS9] | 5.34 ± 0.52 | 6.2 | 5.24 | 5.82 ± 1.9 |  | 5.61 | 10.8 ± 0.63 | 5.74 | 11.6 | 4.88 | 7.48 |  |
| MARTKLKFRLHRAVIVLFCLALLVALMQGASWFSQNHQRQRNPQLEELARTLARQVTLNVAPLMRTDSPDEKRIQAILDQLTDESRILDAGVYDEQGDLIARSGESVEVRDRLALDGKKAGGYFNQQIVEPIAGKNGPLGYLRLTLDTHTLATEAQQVDNTTNILRLMLLLSLAIGVVLTRTLLQGKRTRWQQSPFLLTASKPVPEEEESEKKE [P0AGC7] | 4.45 ± 0.17 | 4.9 ± 1 | 4.57 ± 0.81 | 4.34 ± 0.23 | 3.05 ± 0.13 | 6.19 ± 1.3 |  | 3.69 ± 0.5 | 6.81 ± 0.24 | 5.23 ± 0.067 | 9.34 ± 0.24 | 4.93 ± 0.059 |
| MASISSLGVGSGLDLSSILDSLTAAQKATLTPISNQQSSFTAKLSAYGTLKSALTTFQTANTALSKADLFSATSTTSSTTAFSATTAGNAIAGKYTISVTHLAQAQTLTTRTTRDDTKTAIATSDSKLTIQQGGDKDPITIDISAANSSLSGIRDAINNAKAGVSASIINVGNGEYRLSVTSNDTGLDNAMTLSVSGDDALQSFMGYDASASSNGMEVSVAAQNAQLTVNNVAIENSSNTISDALENITLNLNDVTTGNQTLTITQDTSKAQTAIKDWVNAYNSLIDTFSSLTKYTAVDAGADSQSSSNGALLGDSTLRTIQTQLKSMLSNTVSSSSYKTLAQIGITTDPSDGKLELDADKLTAALKKDASGVGALIVGDGKKTGITTTIGSNLTSWLSTTGIIKAATDGVSKTLNKLTKDYNAASDRIDAQVARYKEQFTQLDVLMTSLNSTSSYLTQQFENNSNSK |  | > 8 |  | > 8 | 1.4 ± 0.12 | 0.627 ± 0.1 | 0.906 ± 0.44 |  | > 16 | > 8 | > 16 | > 8 |
| MASSGTTSTRKRFTGAEFIVHFLEQQGIKIVTGIPGGSILPVYDALSQSTQIRHILARHEQGAGFIAQGMARTDGKPAVCMACSGPGATNLVTAIADARLDSIPLICITGQVPASMIGTDAFQEVDTYGISIPITKHNYLVRHIEELPQVMSDAFRIAQSGRPGPVWIDIPKDVQTAVFEIETQPAMAEKAAAPAFSEESIRDAAAMINAAKRPVLYLGGGVINAPARVRELAEKAQLPTTMTLMALGMLPKAHPLSLGMLGMHGVRSTNYILQEADLLIVLGARFDDRAIGKTEQFCPNAKIIHVDIDRAELGKIKQPHVAIQADVDDVLAQLIPLVEAQPRAEWHQLVADLQREFPCPIPKACDPLSHYGLINAVAACVDDNAIITTDVGQHQMWTAQAYPLNRPRQWLTSGGLGTMGFGLPAAIGAALANPDRKVLCFSGDGSLMMNIQEMATASENQLDVKIILMNNEALGLVHQQQSLFYEQGVFAATYPGKINFMQIAAGFGLETCDLNNEADPQASLQEIINRPGPALIHVRIDAEEKVYPMVPPGAANTEMVGE | 2.91 ± 0.088 | 1.28 ± 0.21 | 1.6 ± 0.46 | 1.43 ± 0.086 | 2.4 ± 0.39 | 2.86 ± 0.38 | 4.64 ± 1.5 | 1.4 ± 0.11 | 2.49 | 4.5 | 8.65 ± 1.8 | 1.25 ± 0.025 |
| MASSNLIKQLQERGLVAQVTDEEALAERLAQGPIALYCGFDPTADSLHLGHLVPLLCLKRFQQAGHKPVALVGGATGLIGDPSFKAAERKLNTEETVQEWVDKIRKQVAPFLDFDCGENSAIAANNYDWFGNMNVLTFLRDIGKHFSVNQMINKEAVKQRLNREDQGISFTEFSYNLLQGYDFACLNKQYGVVLQIGGSDQWGNITSGIDLTRRLHQNQVFGLTVPLITKADGTKFGKTEGGAVWLDPKKTSPYKFYQFWINTADADVYRFLKFFTFMSIEEINALEEEDKNSGKAPRAQYVLAEQVTRLVHGEEGLQAAKRITECLFSGSLSALSEADFEQLAQDGVPMVEMEKGADLMQALVDSELQPSRGQARKTIASNAITINGEKQSDPEYFFKEEDRLFGRFTLLRRGKKNYCLICWK [P0AGJ9] | 5.31 ± 0.33 | 5.61 ± 0.41 | 5.87 ± 0.23 | 5.58 ± 0.69 | 3.11 ± 0.094 | 6.32 ± 0.36 |  | 5.51 ± 0.065 | 10.5 ± 0.76 | 6.271 ± 0.031 | 12.2 ± 0.76 | 5.55 ± 0.44 |
| MATAWYKQVNPPQRKALFSAWLGYVFDGFDFMMIFYILHIIKADLGITDIQATLIGTVAFIARPIGGGFFGAMADKYGRKPMMMWAIFIYSVGTGLSGIATNLYMLAVCRFIVGLGMSGEYACASTYAVESWPKNLQSKASAFLVSGFSVGNIIAAQIIPQFAEVYGWRNSFFIGLLPVLLVLWIRKSAPESQEWIEDKYKDKSTFLSVFRKPHLSISMIVFLVCFCLFGANWPINGLLPSYLADNGVNTVVISTLMTIAGLGTLTGTIFFGFVGDKIGVKKAFVVGLITSFIFLCPLFFISVKNSSLIGLCLFGLMFTNLGIAGLVPKFIYDYFPTKLRGLGTGLIYNLGATGGMAAPVLATYISGYYGLGVSLFIVTVAFSALLILLVGFDIPGKIYKLSVAK |  |  |  |  | 3.16 | > 8 | 9.57 |  |  | 5.55 | 9.48 ± 2.4 |  |
